Test results as given in article PMC8584774.

Target: α-cardiac actin (F-actin) (Sus scrofa)
Assay: co-sedimentation; high-speed cosedimentation; F-actin (0–40 µM) with 5 µM C0–C2 or 30 µM C2; 25 mM HEPES pH 7.3, 25 mM KCl, 5 mM MgCl2, 1 mM EGTA; 30 min at room temperature; 55,000 rpm 30 min; SDS-PAGE densitometry of supernatant and pellet; quadratic fit

Substance	Kd [µM]	percent of C2 in the pellet fraction [%]
MyBPC C0–C2 D389V (from UniProt Q14896 1-452) (domain or fragment)	2.8	–
MyBPC C0–C2 wt (cardiac myosin-binding protein C, N-terminal fragment with subdomains C0 to C2) (from UniProt Q14896 1-452) (domain or fragment)	3.2	–
MyBPC C2 wt (isolated IgI-like C2 domain of cardiac myosin-binding protein C) (from UniProt Q14896 362-452) (domain or fragment)	–	< 2
